Test results reported in article doi:10.1101/2025.08.25.672233.

Target: soluble mouse MXRA8-Fc (UniProt Q9DBV4)
Details: read off a plot; for other: 1/IC50: mean of three biological replicates, parent: est. 2.6; for screen value: parent: est. 0

Chain of UniProt Q9DBV4 (Q9DBV4 22-336): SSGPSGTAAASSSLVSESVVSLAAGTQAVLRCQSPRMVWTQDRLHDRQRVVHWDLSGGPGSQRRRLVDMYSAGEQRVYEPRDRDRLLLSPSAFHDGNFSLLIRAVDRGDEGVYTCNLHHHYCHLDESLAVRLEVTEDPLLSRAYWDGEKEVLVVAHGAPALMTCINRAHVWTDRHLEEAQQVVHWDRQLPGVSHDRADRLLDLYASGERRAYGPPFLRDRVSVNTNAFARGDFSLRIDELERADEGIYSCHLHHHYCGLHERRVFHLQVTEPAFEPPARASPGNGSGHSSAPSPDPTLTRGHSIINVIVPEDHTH

| Substance | other: 1/IC50 | screen value |
| --- | --- | --- |
| CHIKV envelope proteins (E3-E2-6K-E1) from the 181/25 strain, unmutated, on pseudovirus E1:D158R | 15 | 1.9 |
| CHIKV envelope proteins (E3-E2-6K-E1) from the 181/25 strain, unmutated, on pseudovirus E1:K132N | 0.3 | -2.6 |
| CHIKV envelope proteins (E3-E2-6K-E1) from the 181/25 strain, unmutated, on pseudovirus E1:K157C | 0.71 | -1.7 |
| CHIKV envelope proteins (E3-E2-6K-E1) from the 181/25 strain, unmutated, on pseudovirus E2:A157S | 9.4 | 0.85 |
| CHIKV envelope proteins (E3-E2-6K-E1) from the 181/25 strain, unmutated, on pseudovirus E2:E24Y | 1.1 | 1.9 |
| CHIKV envelope proteins (E3-E2-6K-E1) from the 181/25 strain, unmutated, on pseudovirus E2:H18A | 3.2 | 1.6 |
| CHIKV envelope proteins (E3-E2-6K-E1) from the 181/25 strain, unmutated, on pseudovirus E2:I121E | 0.05 | -3.1 |
| CHIKV envelope proteins (E3-E2-6K-E1) from the 181/25 strain, unmutated, on pseudovirus E2:K120D | 0.17 | -2.5 |
| CHIKV envelope proteins (E3-E2-6K-E1) from the 181/25 strain, unmutated, on pseudovirus E2:K189Y | 140 | 2.4 |
| CHIKV envelope proteins (E3-E2-6K-E1) from the 181/25 strain, unmutated, on pseudovirus E2:Q158T | 2.1 | -0.15 |
| CHIKV envelope proteins (E3-E2-6K-E1) from the 181/25 strain, unmutated, on pseudovirus E2:R119K | 0.05 | -3.5 |
| CHIKV envelope proteins (E3-E2-6K-E1) from the 181/25 strain, unmutated, on pseudovirus E2:R178S | 1 | -2.3 |
